The results in this text go back to PMC4150783.

One data set addresses T1, Pot1pN (Schizosaccharomyces pombe, UniProt O13988 1-187).
T1 sequence: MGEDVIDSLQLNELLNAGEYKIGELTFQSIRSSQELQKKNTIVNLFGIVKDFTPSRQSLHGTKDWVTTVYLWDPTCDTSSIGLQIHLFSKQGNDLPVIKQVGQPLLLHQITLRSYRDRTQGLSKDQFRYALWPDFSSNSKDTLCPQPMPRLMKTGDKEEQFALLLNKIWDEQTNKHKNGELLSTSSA
In words: NMR.

Data set [1] concerns the target T2, Pot1-DBD (Schizosaccharomyces pombe, UniProt O13988 1-339).
T2 sequence: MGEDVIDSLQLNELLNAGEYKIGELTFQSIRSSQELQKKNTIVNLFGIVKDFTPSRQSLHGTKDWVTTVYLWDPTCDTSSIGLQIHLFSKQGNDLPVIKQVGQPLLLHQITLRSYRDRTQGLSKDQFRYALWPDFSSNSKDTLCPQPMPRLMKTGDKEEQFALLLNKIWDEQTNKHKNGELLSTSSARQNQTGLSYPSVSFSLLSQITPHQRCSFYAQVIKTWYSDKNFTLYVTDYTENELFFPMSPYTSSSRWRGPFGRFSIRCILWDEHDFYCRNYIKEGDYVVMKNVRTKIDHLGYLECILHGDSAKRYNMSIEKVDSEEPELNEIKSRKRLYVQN
Briefly: NMR.

The target in another data set is T3, Pot1-DBD_Y224A (Schizosaccharomyces pombe, UniProt O13988 1-339, Y224A).
T3 sequence: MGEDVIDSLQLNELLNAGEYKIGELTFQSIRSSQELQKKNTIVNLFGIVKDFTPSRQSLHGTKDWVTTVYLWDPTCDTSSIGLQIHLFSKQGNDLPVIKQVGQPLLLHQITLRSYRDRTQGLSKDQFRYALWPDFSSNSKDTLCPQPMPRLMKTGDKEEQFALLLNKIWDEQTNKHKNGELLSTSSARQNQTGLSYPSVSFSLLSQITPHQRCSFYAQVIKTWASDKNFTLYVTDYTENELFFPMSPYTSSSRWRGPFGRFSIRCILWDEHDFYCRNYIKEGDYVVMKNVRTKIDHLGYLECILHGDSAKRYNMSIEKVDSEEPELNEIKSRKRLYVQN
In words: SEC-MALS.

Data set [2] addresses T2, Pot1-DBD. In words: SEC-MALS.
For another data set, the target named is T4, Pot1pC_Y224A (Schizosaccharomyces pombe, UniProt O13988 198-339, Y224A).
T4 sequence: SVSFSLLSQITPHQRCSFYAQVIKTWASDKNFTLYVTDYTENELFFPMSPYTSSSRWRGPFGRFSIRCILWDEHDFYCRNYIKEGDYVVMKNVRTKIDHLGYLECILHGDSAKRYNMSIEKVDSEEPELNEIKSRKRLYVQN
Briefly: ITC. (In ITC the heat of successive injections is recorded.)

A further data set concerns the target T5, Pot1pC (Schizosaccharomyces pombe, UniProt O13988 198-339).
T5 sequence: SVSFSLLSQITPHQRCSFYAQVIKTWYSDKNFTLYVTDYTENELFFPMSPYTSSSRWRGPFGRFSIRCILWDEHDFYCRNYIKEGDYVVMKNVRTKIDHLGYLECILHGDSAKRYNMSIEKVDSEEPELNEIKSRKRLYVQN
In words: NMR.

Data set [3] addresses T2, Pot1-DBD. In words: SEC-MALS. The source holds these as a separate data set.
In data set [4] the target is T2, Pot1-DBD. In words: EMSA.

B1: 6mer (ssDNA)
DNA: GGTTAC
B1: the binding result with Pot1pN is listed as “binds”.

B2: 15mer (ssDNA)
DNA: GGTTACGGTTACGGT
On to B2, for which the binding result with Pot1-DBD [1] and with Pot1-DBD_Y224A was “binds” throughout.

B3: 12mer_T9A (ssDNA)
DNA: GGTTACGGATAC
B3: the binding result with Pot1-DBD [2] is “binds”.

B4: 9mer (ssDNA)
DNA: GGTTACGGT
Take B4: in the data set with Pot1pC_Y224A, the binding signal is ~10 fold weaker than Pot1pC wild type. In addition, the binding result with Pot1pC was “binds”.

B5: 15mer_G13C (ssDNA)
DNA: GGTTACGGTTACCGT
As for B5, the binding result in the data set with Pot1-DBD [3] is “binds”.

B6: 12mer (ssDNA)
DNA: GGTTACGGTTAC
For B6, the binding result with Pot1-DBD [4] is recorded as “binds”.
